From patent US20260049140A1 (JANUX THERAPEUTICS, published 2026) come the findings set out here.

Broadly, the IC50 is the concentration that inhibits the measured activity by half. High values mean weaker potency, low ones greater potency. By EC50 (read off the curve) is commonly meant the concentration that produces a half-maximal response. What is called EC50 is the concentration at which the effect is half-maximal. Higher therefore signals a need for much substance. Usually Kd stands for the equilibrium constant for the complex coming apart. High values mean lower affinity, low ones higher affinity.

To fix the notation:
B3: TCE-32 (bispecific antibody)
light: DIQLTQSPSSLSASVGDRVSITCKASQDVSIAVAWYQQKPGKAPKLLIYSASYRYTGVPDRFSGSGSGTDFTLTISSLQPEDFAVYYCQQHYITPLTFGAGTKVEIKRTVAAPSVFIFPPSDEQLKSGTASVVCLLNNFYPREAKVQWKVDNALQSGNSQESVTEQDSKDSTYSLSSTLTLSKADYEKHKVYACEVTHQGLSSPVTKSFNRGEC
heavy: not shown
notes: anti-CD3 scFv F240A; anti-TROP2 Fab F108A

One assay addresses T1, TCE-15.
T1 construct: anti-CD3 scFv W112A; anti-TROP2 Fab wt; also called 3087
Briefly: competition ELISA, peptide titrated vs TCE binding to captured CD3. On the technique in general: In an ELISA, binding on a coated surface is turned into a signal by an enzyme label.

The next assay addresses T2, TCE-4.
T2 construct: anti-CD3 scFv H101A; anti-TROP2 Fab wt; also called 3076
The description is as above.

In the next assay the target is T3, TCE-6.
T3 construct: anti-CD3 scFv N103A; anti-TROP2 Fab wt; also called 3078
The description is as above.

Another assay deals with T4, TCE-1.
T4 construct: anti-CD3 scFv wt fused to anti-TROP2 Fab HC wt
The experiment in a line: competition ELISA: peptide titrated and pre-incubated with a constant concentration of TCE-1; TCE-1 bound to plate-captured biotinylated CD3 is detected (blocked ligand: CD3).

For a further assay, the target named is T5, TCE-3.
T5 construct: anti-CD3 scFv R100A; anti-TROP2 Fab wt; also called 3075
Briefly: competition ELISA, peptide titrated vs TCE binding to captured CD3.

Assay [1] has as its target T6, TROP2 (human, UniProt P09758 27-274, limits assumed, biotinylated (site not stated)).
T6 construct: also called TROP2-biotin; tumor-associated calcium signal transducer 2
T6 sequence (looked up): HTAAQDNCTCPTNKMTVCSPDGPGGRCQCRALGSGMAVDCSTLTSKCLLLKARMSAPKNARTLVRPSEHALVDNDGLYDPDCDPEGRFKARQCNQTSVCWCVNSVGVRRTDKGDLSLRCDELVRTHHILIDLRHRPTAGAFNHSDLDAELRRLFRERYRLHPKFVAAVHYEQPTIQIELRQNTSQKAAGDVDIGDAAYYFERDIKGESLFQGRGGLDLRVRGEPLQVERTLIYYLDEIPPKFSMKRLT
Briefly: ELISA, biotinylated TROP2 captured on neutravidin coated plates, HRP secondary antibody, OD 450 nm.

Assay [2] concerns the target T7, CD3ε (human, UniProt P07766 23-126, limits assumed, biotinylated (site not stated)).
T7 construct: also called CD3-biotin; CD3E
Briefly: ELISA, biotinylated CD3 captured on neutravidin coated plates, HRP secondary antibody, OD 450 nm.

The target in assay [3] is T6, TROP2. The experiment in a line: ELISA, biotinylated TROP2 captured on neutravidin coated plates, HRP secondary antibody, OD 450 nm. This is another data set of the same source.
Assay [4] has as its target T6, TROP2. Described as above. This is another data set of the same source.
The target of assay [5] is T8, human CD3ε-biotin (human, UniProt P07766 23-126, limits assumed, biotinylated (site not stated)).
T8 construct: also called CD3E-bio; CD3E-biotin
Briefly: Human CD3 binding ELISA, TCE titrated.

In a further assay the target is T9, Cyno CD3 (Antigen was biotinylated for capture on the plate (per card); site of biotin and any vendor tag not stated in the passages seen.).
T9 construct: also called cynomolgus CD3
T9 chain: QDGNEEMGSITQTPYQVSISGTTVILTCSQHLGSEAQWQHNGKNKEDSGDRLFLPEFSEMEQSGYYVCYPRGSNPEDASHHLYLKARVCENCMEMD
The experiment in a line: Cyno CD3 binding ELISA, TCE titrated.

In assay [6] the target is T8, human CD3ε-biotin. Briefly: ELISA, biotinylated CD3ε captured on neutravidin plate, TCE titrated.
The target of assay [7] is T8, human CD3ε-biotin. The assay is described as above. This is another data set of the same source.
Assay [8] addresses T7, CD3ε. The experiment in a line: ELISA, biotinylated CD3 captured on neutravidin coated plates, HRP secondary antibody, OD 450 nm. The source holds these as a separate data set.
The target in assay [9] is T10, human TROP2-biotin (human, UniProt P09758 27-274, limits assumed, biotinylated (site not stated)).
T10 construct: also called hTROP2-Biotin; Biotinylated TROP2
T10 sequence (looked up): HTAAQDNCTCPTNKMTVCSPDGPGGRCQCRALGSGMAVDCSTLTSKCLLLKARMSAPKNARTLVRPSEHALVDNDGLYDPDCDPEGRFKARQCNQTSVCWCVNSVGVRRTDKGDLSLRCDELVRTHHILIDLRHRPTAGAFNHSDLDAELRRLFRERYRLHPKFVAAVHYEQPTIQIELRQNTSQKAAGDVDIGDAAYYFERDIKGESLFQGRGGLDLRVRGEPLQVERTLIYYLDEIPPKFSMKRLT
Briefly: BLI (Octet), human TROP2-biotin 10 nM on sensor, 50 nM TCE. A general note: In BLI a coated tip is dipped into the sample, and binding shifts an interference pattern.

The target of assay [10] is T8, human CD3ε-biotin. Briefly: BLI (Octet), human CD3-biotin 10 nM on sensor, 50 nM TCE.
Assay [11] concerns the target T6, TROP2. Briefly: ELISA, biotinylated TROP2 captured on neutravidin coated plates, HRP secondary antibody, OD 450 nm. The source holds these as a separate data set.
In assay [12] the target is T10, human TROP2-biotin. Briefly: ELISA, biotinylated TROP2 captured on neutravidin plate, TCE titrated; table row head prints EC50 without a unit, unit taken from the axis Log [TCE nM].
The target in assay [13] is T7, CD3ε. The experiment in a line: ELISA, biotinylated CD3 captured on neutravidin coated plates, HRP secondary antibody, OD 450 nm. The source holds these as a separate data set.
Assay [14] has as its target T8, human CD3ε-biotin. Briefly: ELISA, biotinylated CD3ε captured on neutravidin plate, TCE titrated; table row head prints EC50 without a unit, unit taken from the axis Log [TCE nM].
The assay “TCE-32” addresses B3. The experiment in a line: competition ELISA, peptide titrated vs TCE binding to captured CD3.
The target in a further assay is T11, TCE-30.
T11 construct: anti-CD3 scFv H101A; anti-TROP2 Fab F108A
The description is as above.

Read-outs that look alike come from different tables or passages of the source. Ends that are not written are not given here.

B1: Peptide-4 (peptide)
peptide: DWCWYSPDNDGLCD
modifications: cysteine pairing not given here; also: biotinylated when captured in binding ELISA
notes: also called 1446
For B1, the IC50 with TCE-15 was above 100000 nM; with TCE-4 it was above 100000 nM; with TCE-6 it was 4590 nM. Besides, the “IC50 (read off the curve)” value with TCE-1 is around 2000 nM.

B2: Peptide-5 (peptide)
peptide: SECLVDLQSDPCYW
modifications: cysteine pairing not given here; also: biotinylated when captured in binding ELISA
notes: also called 1454
For B2, the IC50 in the assay with TCE-3 and with TCE-4 was above 100000 nM throughout. For the same molecule, the “IC50 (read off the curve)” value in the assay with TCE-1 is around 3000 nM.
For the molecule B3, the “EC50 (read off the curve)” value in the assay with TROP2 [1] was around 0.7 nM; in the assay with CD3ε [2] it was around 0.6 nM.

B4: TCE-29 (bispecific antibody)
light: DIQLTQSPSSLSASVGDRVSITCKASQDVSIAVAWYQQKPGKAPKLLIYSASYRYTGVPDRFSGSGSGTDFTLTISSLQPEDFAVYYCQQHYITPLTFGAGTKVEIKRTVAAPSVFIFPPSDEQLKSGTASVVCLLNNFYPREAKVQWKVDNALQSGNSQESVTEQDSKDSTYSLSSTLTLSKADYEKHKVYACEVTHQGLSSPVTKSFNRGEC
heavy: not shown
notes: anti-CD3 scFv wt; anti-TROP2 Fab F108A
For B4, the results for the concentration giving a half-maximal response (EC50 (read off the curve)) in the assay with TROP2 [3] and in the assay with TROP2 [4] were around 0.9 nM and around 2 nM, respectively.

B5: TCE-34 (anti-CD3 scFv, several mutations; anti-TROP2 (F108A) HC) (bispecific antibody)
light: DIQLTQSPSSLSASVGDRVSITCKASQDVSIAVAWYQQKPGKAPKLLIYSASYRYTGVPDRFSGSGSGTDFTLTISSLQPEDFAVYYCQQHYITPLTFGAGTKVEIKRTVAAPSVFIFPPSDEQLKSGTASVVCLLNNFYPREAKVQWKVDNALQSGNSQESVTEQDSKDSTYSLSSTLTLSKADYEKHKVYACEVTHQGLSSPVTKSFNRGEC
heavy: not shown
notes: scFv-Fab; the entry already carries the mutations
On to B5, for which the EC50 stood at 0.382 nM with human CD3ε-biotin [5], 0.354 nM with Cyno CD3, 0.376 nM with human CD3ε-biotin [6] and 0.356 nM with human CD3ε-biotin [7].

B6: TCE-34 (bispecific antibody)
light: DIQLTQSPSSLSASVGDRVSITCKASQDVSIAVAWYQQKPGKAPKLLIYSASYRYTGVPDRFSGSGSGTDFTLTISSLQPEDFAVYYCQQHYITPLTFGAGTKVEIKRTVAAPSVFIFPPSDEQLKSGTASVVCLLNNFYPREAKVQWKVDNALQSGNSQESVTEQDSKDSTYSLSSTLTLSKADYEKHKVYACEVTHQGLSSPVTKSFNRGEC
heavy: not shown
notes: anti-CD3 scFv N30Q, I109V, G172A, V231A; anti-TROP2 Fab F108A
With B6, the half-maximal effective concentration (EC50 (read off the curve)) was around 2 nM with TROP2 [4] and around 0.6 nM with CD3ε [8].

B7: TCE-33 (anti-CD3 scFv, several mutations; anti-TROP2 (F108A) HC) (bispecific antibody)
light: DIQLTQSPSSLSASVGDRVSITCKASQDVSIAVAWYQQKPGKAPKLLIYSASYRYTGVPDRFSGSGSGTDFTLTISSLQPEDFAVYYCQQHYITPLTFGAGTKVEIKRTVAAPSVFIFPPSDEQLKSGTASVVCLLNNFYPREAKVQWKVDNALQSGNSQESVTEQDSKDSTYSLSSTLTLSKADYEKHKVYACEVTHQGLSSPVTKSFNRGEC
heavy: EVQLVESGGGLVQPGGSLKLSCAASGFTFNKYAMNWVRQASGKGLEWVGRIRSKYNNYATYYADSVKDRFTISRDDSKNTAYLQMNSLKTEDTAVYYCVRHGNFGNSYISYWAYWGQGTLVTVSSGGGGSGGGGSGGGGSQTVVTQEPSFSVSPGGTVTLTCRSSTGAVTSGNYANWVQQTPGQAPRGLIGGTKFLAPGVPDRFSGSILGNKAALTITGAQADDESDYYCVLWYSNRWVFGGGTKLTVLGGGGSQVQLQQSGSELKKPGASVKVSCKASGYTFTNYGMNWVKQAPGQGLKWMGWINTYTGEPTYTDDFKGRFAFSLDTSVSTAYLQISSLKADDTAVYFCARGGFGSSYWYADVWGQGSLVTVSSASTKGPSVFPLAPSSKSTSGGTAALGCLVKDYFPEPVTVSWNSGALTSGVHTFPAVLQSSGLYSLSSVVTVPSSSLGTQTYICNVNHKPSNTKVDKKVEPKSC
notes: as for B5
B7: the Kd amounted to 1.22 nM with human TROP2-biotin [9] and 0.467 nM with human CD3ε-biotin [10].

B8: TCE-37 (bispecific antibody)
light: DIQLTQSPSSLSASVGDRVSITCKASQDVSIAVAWYQQKPGKAPKLLIYSASYRYTGVPDRFSGSGSGTDFTLTISSLQPEDFAVYYCQQHYITPLTFGAGTKVEIKRTVAAPSVFIFPPSDEQLKSGTASVVCLLNNFYPREAKVQWKVDNALQSGNSQESVTEQDSKDSTYSLSSTLTLSKADYEKHKVYACEVTHQGLSSPVTKSFNRGEC
heavy: not shown
notes: anti-CD3 scFv F104A; anti-TROP2 Fab D109A
B8: the 50% effective concentration (EC50 (read off the curve)) is around 0.7 nM in the assay with TROP2 [11] and around 0.6 nM with CD3ε [13]. In the assay with human TROP2-biotin [12], this molecule gave an EC50 of 0.893 nM.

B9: TCE-32 (anti-CD3 scFv F240A; anti-TROP2 (F108A) HC) (bispecific antibody)
light: DIQLTQSPSSLSASVGDRVSITCKASQDVSIAVAWYQQKPGKAPKLLIYSASYRYTGVPDRFSGSGSGTDFTLTISSLQPEDFAVYYCQQHYITPLTFGAGTKVEIKRTVAAPSVFIFPPSDEQLKSGTASVVCLLNNFYPREAKVQWKVDNALQSGNSQESVTEQDSKDSTYSLSSTLTLSKADYEKHKVYACEVTHQGLSSPVTKSFNRGEC
heavy: not shown
notes: as for B5
For B9, the EC50 with human CD3ε-biotin [14] amounted to 0.938 nM; in the assay with human CD3ε-biotin [5], 0.531 nM; in the assay with Cyno CD3, 0.482 nM.

B10: Peptide-12 (peptide)
peptide: YLCGPDADETLACY
modifications: cysteine pairing not given here; also: biotinylated when captured in ELISA
On to B10, for which the IC50 with TCE-32 and in the assay with TCE-30 was above 100000 nM throughout.
